The text below walks through data of publication PMC8034652 (Nucleic Acids Research, 2021).

The data set concerns the molecule itself. The data set can be described thus: native gel or EMSA. (In EMSA bound probe runs differently from free probe, usually more slowly.)

B1: FOXO1 R225A mutant (domain or fragment)
chain: KSSSSRRNAWGNLSYADLITKAIESSAEKRLTLSQIYEWMVKSVPYFKDKGDSNSSAGWKNSIRHNLSLHSKFIAVQNEGTGKSSWWMLNPEGGKSGKSPRRRAASMDNNSKFAKS
Regarding B1, the binding result is “binds”.

B2: FOXO1 Q227A mutant (domain or fragment)
chain: KSSSSRRNAWGNLSYADLITKAIESSAEKRLTLSQIYEWMVKSVPYFKDKGDSNSSAGWKNSIRHNLSLHSKFIRVANEGTGKSSWWMLNPEGGKSGKSPRRRAASMDNNSKFAKS
For the protein B2, the binding result is given as “binds”.
